Measured values from patent publication US20240117049A1 (Hoffmann-La Roche, published 2024).

Legend:
[1] = target: T1, biotinylated recombinant human FAP (human, UniProt Q12884 27-760, biotinylated); experiment: SPR (Biacore)
T1 construct: the Biacore paragraphs only say biotinylated (recombinant) human FAP; also called biotinylated human FAP; recombinant huFAP

[2] = target: T1, biotinylated recombinant human FAP; experiment: SPR (Biacore), biotinylated huFAP on CAP chip, Fab as analyte, 1:1 fit
[3] = target: T2, human OX40 on cells (human, UniProt P43489 29-277); experiment: cell-based or functional assay
T2 sequence: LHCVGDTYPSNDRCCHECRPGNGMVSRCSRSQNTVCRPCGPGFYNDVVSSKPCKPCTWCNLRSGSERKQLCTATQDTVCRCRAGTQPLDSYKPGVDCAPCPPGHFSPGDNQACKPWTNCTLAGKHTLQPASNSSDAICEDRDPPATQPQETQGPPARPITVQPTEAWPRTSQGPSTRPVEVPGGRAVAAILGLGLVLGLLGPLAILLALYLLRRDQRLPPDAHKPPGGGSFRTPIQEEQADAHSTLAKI

[4] = target: T2, human OX40 on cells; experiment: flow cytometry, activated human CD4+ T cells
[5] = target: T3, biotinylated human OX40 (human, UniProt P43489 29-214, limits assumed, biotinylated); experiment: SPR, stressed against unstressed sample, normalised to anti-hu IgG capture
T3 sequence: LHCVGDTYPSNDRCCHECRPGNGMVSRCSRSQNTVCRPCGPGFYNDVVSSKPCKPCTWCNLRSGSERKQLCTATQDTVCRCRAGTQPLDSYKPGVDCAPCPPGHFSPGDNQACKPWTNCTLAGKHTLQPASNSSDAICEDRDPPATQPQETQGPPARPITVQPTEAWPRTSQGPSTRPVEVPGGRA

[6] = target: T1, biotinylated recombinant human FAP; experiment: as above
[7] = target: T2, human OX40 on cells; experiment: cell-based or functional assay; remark: listed apart in the source
[8] = target: T4, FcRn (biotinylated, coupled to streptavidin-sepharose); experiment: FcRn affinity chromatography, pH gradient, retention compared to standards
T4 construct: also called neonatal Fc receptor
T4 sequence (P55899 24-297, chain 1 of 2): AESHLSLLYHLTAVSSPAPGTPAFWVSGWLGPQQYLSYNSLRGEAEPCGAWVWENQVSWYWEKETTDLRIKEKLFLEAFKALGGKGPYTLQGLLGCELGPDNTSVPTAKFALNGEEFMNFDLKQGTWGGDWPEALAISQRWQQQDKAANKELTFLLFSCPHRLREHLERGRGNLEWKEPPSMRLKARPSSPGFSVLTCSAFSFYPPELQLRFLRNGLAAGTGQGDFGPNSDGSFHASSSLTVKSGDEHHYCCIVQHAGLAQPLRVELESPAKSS
T4 sequence (P61769 21-119, chain 2 of 2, further chain): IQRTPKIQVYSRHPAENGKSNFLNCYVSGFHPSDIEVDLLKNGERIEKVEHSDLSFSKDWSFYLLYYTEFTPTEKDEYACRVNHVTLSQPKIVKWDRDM

[9] = target: T5, human Fibroblast Activation Protein (FAP) expressed on cells (human, UniProt Q12884 1-760); experiment: flow cytometry, NIH/3T3-huFAP clone 19 cells
T5 construct: cell surface FAP on transfected HEK cells or NIH/3T3-huFAP clone 19 fibroblasts; also called huFAP; human FAP-transfected HEK cells

Row | Binder | Kd [1] | T ½ [1] | koff [1] | kon [1] | EC50 of NFκB activation, HeLa_hOx40_NFkB_Luc1, w/ hu FAP+ fibroblasts [3] | AUC of CD25 upregulation compared to reference compound [%] [7] | also measured
1 | P1AE1690_Fab, humanized anti-FAP Fab VH1G2a/VL1G1a (Fab, V domains shown) VH: QVQLVQSGAEVKKPGASVKVSCKASGYTLTDYNMDWVRQAPGKSLEWIGDIYPNTGGTIYNQKFKGRVTMTIDKSTSTVYMELSSLRSEDTAVYYCTRFRGIHYAMDYWGQGTTVTVSS VL: EIVLTQSPATLSLSPGERATLSCRASESVDNYGLSFINWFQQKPGQAPRLLIYGTSNRGSGIPARFSGSGSGTDFTLTISSLEPEDFAVYFCQQSNEVPYTFGGGTKVEIK | 0.114 nM | 3.05 h | 6.3e-05 s⁻¹ | 551000 M⁻¹ s⁻¹ |  |  | 
2 | P1AE1689_Fab, humanized anti-FAP Fab VH1G1a/VL1G1a (Fab, V domains shown, also called FAP antibody 1G1a; H212) VH: QVQLVQSGAEVKKPGASVKVSCKASGYTLTDYNMDWVRQAPGQGLEWIGDIYPNTGGTIYNQKFKGRVTMTIDTSTSTVYMELSSLRSEDTAVYYCTRFRGIHYAMDYWGQGTTVTVSS VL: EIVLTQSPATLSLSPGERATLSCRASESVDNYGLSFINWFQQKPGQAPRLLIYGTSNRGSGIPARFSGSGSGTDFTLTISSLEPEDFAVYFCQQSNEVPYTFGGGTKVEIK | 0.095 nM | 4.57 h | 4.21e-05 s⁻¹ | 443000 M⁻¹ s⁻¹ |  |  | 
3 | P1AE1693_Fab, humanized anti-FAP Fab VH1G2a/VL1G2a (Fab, V domains shown) VH: QVQLVQSGAEVKKPGASVKVSCKASGYTLTDYNMDWVRQAPGKSLEWIGDIYPNTGGTIYNQKFKGRVTMTIDKSTSTVYMELSSLRSEDTAVYYCTRFRGIHYAMDYWGQGTTVTVSS VL: EIVLTQSPATLSLSPGERATLSCRASESVDNYGLSFINWFQQKPGQPPRLLIYGTSNRGSGIPARFSGSGSGTDFTLTISSLEPEDFAVYFCQQSNEVPYTFGGGTKVEIK | 0.135 nM | 2.68 h | 7.18e-05 s⁻¹ | 530000 M⁻¹ s⁻¹ |  |  | 
4 | 4B9_Fab (Fab, V domains shown, Fab; also called anti-FAP 4B9 Fab) VH: EVQLLESGGGLVQPGGSLRLSCAASGFTFSSYAMSWVRQAPGKGLEWVSAIIGSGASTYYADSVKGRFTISRDNSKNTLYLQMNSLRAEDTAVYYCAKGWFGGFNYWGQGTLVTVSS VL: EIVLTQSPGTLSLSPGERATLSCRASQSVTSSYLAWYQQKPGQAPRLLINVGSRRATGIPDRFSGSGSGTDFTLTISRLEPEDFAVYYCQQGIMLPPTFGQGTKVEIK | 0.279 nM | 0.917 h | 0.000208 s⁻¹ | 747000 M⁻¹ s⁻¹ |  |  | Kd [2]: 0.43 nM; koff [2]: 0.00078 s⁻¹; kon [2]: 1.82e+06 M⁻¹ s⁻¹
5 | P1AE8875 OX40(MOXR0916) x FAP (1G1a) (3 + 1) C-terminal crossfab fusion (bispecific antibody, human IgG1, kappa, L234A L235A, also called MOX0916 3+1) heavy 1: not shown heavy 2: EVQLVQSGAEVKKPGASVKVSCKASGYTFTDSYMSWVRQAPGQGLEWIGDMYPDNGDSSYNQKFRERVTITRDTSTSTAYLELSSLRSEDTAVYYCVLAPRWYFSVWGQGTLVTVSSASTKGPSVFPLAPSSKSTSGGTAALGCLVEDYFPEPVTVSWNSGALTSGVHTFPAVLQSSGLYSLSSVVTVPSSSLGTQTYICNVNHKPSNTKVDEKVEPKSCGGGGSGGSGGEVQLVQSGAEVKKPGASVKVSCKASGYTFTDSYMSWVRQAPGQGLEWIGDMYPDNGDSSYNQKFRERVTITRDTSTSTAYLELSSLRSEDTAVYYCVLAPRWYFSVWGQGTLVTVSSASTKGPSVFPLAPSSKSTSGGTAALGCLVEDYFPEPVTVSWNSGALTSGVHTFPAVLQSSGLYSLSSVVTVPSSSLGTQTYICNVNHKPSNTKVDEKVEPKSCDKTHTCPPCPAPEAAGGPSVFLFPPKPKDTLMISRTPEVTCVVVDVSHEDPEVKFNWYVDGVEVHNAKTKPREEQYNSTYRVVSVLTVLHQDWLNGKEYKCKVSNKALGAPIEKTISKAKGQPREPQVCTLPPSRDELTKNQVSLSCAVKGFYPSDIAVEWESNGQPENNYKTTPPVLDSDGSFFLVSKLTVDKSRWQQGNVFSCSVMHEALHNHYTQKSLSLSPG light 1: not shown light 2: EIVLTQSPATLSLSPGERATLSCRASESVDNYGLSFINWFQQKPGQAPRLLIYGTSNRGSGIPARFSGSGSGTDFTLTISSLEPEDFAVYFCQQSNEVPYTFGGGTKVEIKSSASTKGPSVFPLAPSSKSTSGGTAALGCLVKDYFPEPVTVSWNSGALTSGVHTFPAVLQSSGLYSLSSVVTVPSSSLGTQTYICNVNHKPSNTKVDKKVEPKSC |  |  |  |  | 0.31 nM | 100% | EC50 of NFκB activation, HeLa_hOx40_NFkB_Luc1, w/o crosslinking [3]: 3.94 nM; EC50 [4]: 0.69 nM; binding activity [%] after 2 weeks at pH 6.0/40°C [5]: > 90%; binding activity [%] after 2 weeks at pH 7.4/37°C [5]: > 90%; binding activity [%] after 2 weeks at pH 6.0/40°C [6]: > 90%; binding activity [%] after 2 weeks at pH 7.4/37°C [6]: > 90%; EC50 of CD25 upregulation on CD4+ T cells, suboptimal TCR stimulation of human PBMC with FAP+ fibroblasts [7]: 0.02 nM; FcRn affinity (relative retention) [8]: -0.22; EC50 [9]: 2.7 nM
6 | P1AE8872 OX40(MOXR0916) x FAP (1G1a) (2 + 1) C-terminal crossfab fusion (bispecific antibody, human IgG1, kappa, L234A L235A, also called MOX0916 2+1) heavy 1: not shown heavy 2: EVQLVQSGAEVKKPGASVKVSCKASGYTFTDSYMSWVRQAPGQGLEWIGDMYPDNGDSSYNQKFRERVTITRDTSTSTAYLELSSLRSEDTAVYYCVLAPRWYFSVWGQGTLVTVSSASTKGPSVFPLAPSSKSTSGGTAALGCLVEDYFPEPVTVSWNSGALTSGVHTFPAVLQSSGLYSLSSVVTVPSSSLGTQTYICNVNHKPSNTKVDEKVEPKSCDKTHTCPPCPAPEAAGGPSVFLFPPKPKDTLMISRTPEVTCVVVDVSHEDPEVKFNWYVDGVEVHNAKTKPREEQYNSTYRVVSVLTVLHQDWLNGKEYKCKVSNKALGAPIEKTISKAKGQPREPQVCTLPPSRDELTKNQVSLSCAVKGFYPSDIAVEWESNGQPENNYKTTPPVLDSDGSFFLVSKLTVDKSRWQQGNVFSCSVMHEALHNHYTQKSLSLSPG light 1: not shown light 2: EIVLTQSPATLSLSPGERATLSCRASESVDNYGLSFINWFQQKPGQAPRLLIYGTSNRGSGIPARFSGSGSGTDFTLTISSLEPEDFAVYFCQQSNEVPYTFGGGTKVEIKSSASTKGPSVFPLAPSSKSTSGGTAALGCLVKDYFPEPVTVSWNSGALTSGVHTFPAVLQSSGLYSLSSVVTVPSSSLGTQTYICNVNHKPSNTKVDKKVEPKSC |  |  |  |  | 0.19 nM | 106% | EC50 [4]: 0.9 nM; binding activity [%] after 2 weeks at pH 6.0/40°C [5]: > 90%; binding activity [%] after 2 weeks at pH 7.4/37°C [5]: > 90%; binding activity [%] after 2 weeks at pH 6.0/40°C [6]: > 90%; binding activity [%] after 2 weeks at pH 7.4/37°C [6]: > 90%; EC50 of CD25 upregulation on CD4+ T cells, suboptimal TCR stimulation of human PBMC with FAP+ fibroblasts [7]: 0.01 nM; FcRn affinity (relative retention) [8]: 0.15; EC50 [9]: 1.78 nM
7 | P1AD3690, untargeted tetravalent OX40 (49B4) antigen binding molecule (4+0) (antibody, human IgG1, kappa, L234A L235A) heavy: not shown light: DIQMTQSPSTLSASVGDRVTITCRASQSISSWLAWYQQKPGKAPKLLIYDASSLESGVPSRFSGSGSGTEFTLTISSLQPDDFATYYCQQYSSQPYTFGQGTKVEIKRTVAAPSVFIFPPSDEQLKSGTASVVCLLNNFYPREAKVQWKVDNALQSGNSQESVTEQDSKDSTYSLSSTLTLSKADYEKHKVYACEVTHQGLSSPVTKSFNRGEC |  |  |  |  | 0.18 nM | 13% | EC50 of NFκB activation, HeLa_hOx40_NFkB_Luc1, w/o crosslinking [3]: 0.23 nM
8 | P1AE1702_Fab, humanized anti-FAP Fab VH2G2a/VL2G2a (Fab, V domains shown) VH: EVQLLESGGGLVQPGGSLRLSCAASGYTLTDYNMDWVRQAPGKGLEWVGDIYPNTGGTIYNQKFKGRFTISIDKSKNTAYLQMNSLRAEDTAVYYCTRFRGIHYAMDYWGQGTTVTVSS VL: DIQMTQSPSSLSASVGDRVTITCRASESVDNYGLSFINWFQQKPGQPPKLLIYGTSNRGSGVPSRFSGSGSGTDFTLTISSLQPEDFAMYFCQQSNEVPYTFGGGTKVEIK | 0.213 nM | 1.8 h | 0.000107 s⁻¹ | 502000 M⁻¹ s⁻¹ |  |  | 
